± gives the uncertainty stated by the source.

Consider 38 sequences from the supplement of paper PMC7877785.

The nature of the data set: self-splicing fitness, log relative to wild type (ln ratio); higher = more splicing; Tetrahymena group I intron in knt gene, E. coli kanamycin selection, DiMSum; sequences stand for … in CUCUCU…GGAGGGAAAAGUUAUCAGGCAUGCACCUGGUAGCUAGUCUUUAAACCAAUAGAUUGCAUCGGUUUAAAAGGCAAGACCGUCAAAUUGCGGGAAAGGGGUCAACAGCCGUUCAGUACCAAGUCUCAGGGGAAACUUUGAGAUGGCCUUGCAAAGGGUAUGGUAAUAAGCUGACGGACAUGGUCCUAACCACGCAGCCAAGUCCUAAGUCAACAGAUCUUCUGUUGAUAUGGAUGCAGUUCACAGACUAAAUGUCGGUCGGGGAAGAUGUAUUCUUCUCAUAAGAUAUAGUCGGACCUCUCCUUAAUGGGAGCUAGCGGAUGAAGUGAUGCAACACUGGAGCCGCUGGGAACUAAUUUGUAUGCGAAAGUAUAUUGAUUAGUUUUGGAGUACUCGUGGUCG
The method in brief: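 A randomised library covering all eight P1ex-region intron nucleotides was built with the intron in the knt kanamycin-resistance gene on pET-22b(+) and held in E. coli BL21(DE3). Cells were grown overnight at 37°C or 30°C on LB agar, with or without 25 μg/mL kanamycin, plus 100 μg/mL carbenicillin, 50 μM IPTG and 0.2% rhamnose, and pooled colonies were amplicon-sequenced on an Illumina HiSeq 2500. DiMSum fitness is the error-weighted combination of wild-type-normalised replicate fold changes, kanamycin versus none.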

As for AGCGAGCAAUAUUACGCUUA, the “self-splicing fitness (ln)” value is, setting by setting: (30 °C) -3.13 ± 0.27; (37 °C) 0.422 ± 0.17. On to AGCGAGCAAUAUUACGGACA, for which the “self-splicing fitness (ln)” value runs as follows: (30 °C) -2.53 ± 0.37; (37 °C) -2.94 ± 0.34. As to AGCGAGCAAUAUUACGGACG, the “self-splicing fitness (ln)” value (37 °C) is -1.9 ± 0.36.

With AGCGAGCAAUAUUACGGCUU, the “self-splicing fitness (ln)” value runs as follows: (30 °C) -2.59 ± 0.12; (37 °C) -2.02 ± 0.21.

Regarding AGCGAGCAAUAUUACGGGUC, the “self-splicing fitness (ln)” value is -2.01 ± 0.13 (30 °C) and -2.66 ± 0.25 (37 °C). The corresponding values for AGCGAGCAAUAUUACGGUAU are -3.18 ± 0.16 and -2.54 ± 0.22. Regarding AGCGAGCAAUAUUACGGUGG, the “self-splicing fitness (ln)” value was -2.67 ± 0.15 (30 °C) and -2.11 ± 0.25 (37 °C).

As for AGCGAGCAAUAUUACGUAAC, the “self-splicing fitness (ln)” value by setting is: (30 °C) -3.79 ± 0.29; (37 °C) -1.46 ± 0.24. On the same counts, the results for AGCGAGCAAUAUUACGUAGA are -3.17 ± 0.24 and -2.85 ± 0.29. AGCGAGCAAUAUUACGUGAG: the “self-splicing fitness (ln)” value is -4.49 ± 0.27 (30 °C) and -2.79 ± 0.19 (37 °C). On the same counts, the results for AGCGAGCAAUAUUACGUGCC are -3.37 ± 0.41 and -0.439 ± 0.22.

In the case of AGCGAGCAAUAUUACGUGGG, the “self-splicing fitness (ln)” value (30 °C) is -2.35 ± 0.27 and the “self-splicing fitness (ln)” value (37 °C) was -3.19 ± 0.35. AGCGAGCAAUAUUACGUGUC: the “self-splicing fitness (ln)” value by setting is: (30 °C) -3.1 ± 0.24; (37 °C) -2.85 ± 0.22.

Turning to AGCGAGCAAUAUUACGUUUU, the “self-splicing fitness (ln)” value is, setting by setting: (30 °C) -3.47 ± 0.28; (37 °C) -1.66 ± 0.22. Take AGCUAGCAAUAUUACGAAAG: the “self-splicing fitness (ln)” value was -3.5 ± 0.19 (30 °C) and -2.77 ± 0.25 (37 °C). On the same counts, the results for AGCUAGCAAUAUUACGAACA are -2.24 ± 0.23 and -0.832 ± 0.2. On to AGCUAGCAAUAUUACGAAUG, for which the “self-splicing fitness (ln)” value runs as follows: (30 °C) -2.09 ± 0.17; (37 °C) -2.27 ± 0.29. The corresponding values for AGCUAGCAAUAUUACGACCU are 0.703 ± 0.17 and -0.166 ± 0.18. On the same counts, the results for AGCUAGCAAUAUUACGACUG are -0.901 ± 0.072 and -0.941 ± 0.12. In the case of AGCUAGCAAUAUUACGCAAC, the “self-splicing fitness (ln)” value was -3.6 ± 0.35 (30 °C) and -1.86 ± 0.32 (37 °C). As to AGCUAGCAAUAUUACGCACC, the “self-splicing fitness (ln)” value is -0.833 ± 0.15 (30 °C) and -0.409 ± 0.19 (37 °C). On the same counts, the results for AGCUAGCAAUAUUACGCACU are -1.19 ± 0.1 and -0.466 ± 0.13. On to AGCUAGCAAUAUUACGCCAC, for which the “self-splicing fitness (ln)” value was -3.18 ± 0.32 (30 °C) and -2.45 ± 0.42 (37 °C). On to AGCUAGCAAUAUUACGCGGU, for which the “self-splicing fitness (ln)” value reads like this: (30 °C) -4.02 ± 0.27; (37 °C) -1.71 ± 0.13.

As to AGCUAGCAAUAUUACGCGUU, the “self-splicing fitness (ln)” value by setting is: (30 °C) -2.62 ± 0.091; (37 °C) -2.11 ± 0.12. The corresponding values for AGCUAGCAAUAUUACGGAAC are -2.7 ± 0.2 and -2.38 ± 0.24.

Turning to AGCUAGCAAUAUUACGUCCG, the “self-splicing fitness (ln)” value reads like this: (30 °C) -1.65 ± 0.23; (37 °C) -0.915 ± 0.21.

Take AGCUAGCAAUAUUACGUGGA: the “self-splicing fitness (ln)” value is -3.53 ± 0.2 (30 °C) and -2.04 ± 0.14 (37 °C). The corresponding values for AGCUAGCAAUAUUACGUGUG are -2.2 ± 0.06 and -1.7 ± 0.079. On the same counts, the results for AGGAAGCAAUAUUACGACUC are -0.644 ± 0.3 and -0.886 ± 0.45. The corresponding values for AGGAAGCAAUAUUACGAGGU are -3.85 ± 0.34 and -2.97 ± 0.24. AGGAAGCAAUAUUACGAUUG: the “self-splicing fitness (ln)” value by setting is: (30 °C) -3.96 ± 0.36; (37 °C) -3.3 ± 0.28. On to AGGAAGCAAUAUUACGCACC, for which the “self-splicing fitness (ln)” value is -1.52 ± 0.16 (30 °C) and 0.0459 ± 0.16 (37 °C). In the case of AGGAAGCAAUAUUACGCCCA, the “self-splicing fitness (ln)” value runs as follows: (30 °C) -0.363 ± 0.42; (37 °C) 1.47 ± 0.39. The corresponding values for AGGAAGCAAUAUUACGCGUA are -1.87 ± 0.15 and -0.669 ± 0.11. On the same counts, the results for AGGAAGCAAUAUUACGCGUU are -2.55 ± 0.17 and -1.01 ± 0.17. On to AGGAAGCAAUAUUACGGAUA, for which, under “37 °C”, the “self-splicing fitness (ln)” value is -2.01 ± 0.21. As for AGGAAGCAAUAUUACGGCGU, the “self-splicing fitness (ln)” value is, setting by setting: (30 °C) -0.156 ± 0.1; (37 °C) -0.118 ± 0.11.
